In the supplement of paper PMC9112550, “Optimization of the antimicrobial peptide Bac7 by deep mutational scanning” (BMC Biology, 2022):

What follows are sequences tested on Escherichia coli TOP10 (assay: shrunken log2 fold change of peptide-encoding DNA abundance (4.5 h post-induction vs induction); higher = less antimicrobial activity (less host growth inhibition)). Details: time post-induction: 4.5 h; library: site-saturation at positions 5, 18, 19, 20.
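Also: peptides expressed intracellularly from a pBAD plasmid library in pooled LB shake-flask culture, induced with 0.3% L-arabinose, DNA abundance read by NGS, three biological replicates, DESeq2 with apeglm shrinkage.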

Sequence | shrunken log2 fold change
RRIRLRPPRLPRPRPRPHNCPRP | -0.192
RRIRMRPPRLPRPRPRPPQAPRP | 1.06
RRIRARPPRLPRPRPRPVVIPRP | 0.206
RRIRDRPPRLPRPRPRPGDSPRP | 0.13
RRIRWRPPRLPRPRPRPRQIPRP | 0.459
RRIRLRPPRLPRPRPRPEQVPRP | -0.117
RRIRYRPPRLPRPRPRPHILPRP | -0.288
RRIRTRPPRLPRPRPRPQRMPRP | -0.272
RRIRPRPPRLPRPRPRPNTPPRP | -0.153
RRIRNRPPRLPRPRPRPTFKPRP | -0.175
RRIRMRPPRLPRPRPRPHWKPRP | 0.0142
RRIRRRPPRLPRPRPRPTMRPRP | 0.667
RRIRARPPRLPRPRPRPCPMPRP | -0.0338
RRIRDRPPRLPRPRPRPSLMPRP | 0.175
RRIRRRPPRLPRPRPRPGYNPRP | -0.27
RRIRPRPPRLPRPRPRPSPVPRP | 0.0207
RRIRTRPPRLPRPRPRPNHEPRP | -0.143
RRIRPRPPRLPRPRPRPVANPRP | 0.495
RRIRSRPPRLPRPRPRPCFDPRP | 0.11
RRIRMRPPRLPRPRPRPKRHPRP | 0.351
RRIRCRPPRLPRPRPRPCNKPRP | -0.671
RRIRERPPRLPRPRPRPYEFPRP | 0.00902
RRIRKRPPRLPRPRPRPHMMPRP | 0.217
RRIRPRPPRLPRPRPRPRQWPRP | 0.485
RRIRLRPPRLPRPRPRPHLIPRP | -0.151

Sequence | shrunken log2 fold change
RRIRPRPPRLPRPRPRPIIHPRP | -0.707
RRIRVRPPRLPRPRPRPYYQPRP | -0.245
RRIRKRPPRLPRPRPRPKKHPRP | 0.276
RRIRTRPPRLPRPRPRPFGSPRP | 0.0169
RRIRWRPPRLPRPRPRPGASPRP | 0.793
RRIRPRPPRLPRPRPRPHVSPRP | 0.00841
RRIRWRPPRLPRPRPRPILVPRP | 0.0752
RRIRQRPPRLPRPRPRPYEVPRP | -0.31
RRIRHRPPRLPRPRPRPCSIPRP | -0.0189
RRIRMRPPRLPRPRPRPPPIPRP | 1.47
RRIRKRPPRLPRPRPRPEFLPRP | -0.00158
RRIRIRPPRLPRPRPRPNEDPRP | -0.488
RRIRKRPPRLPRPRPRPAGHPRP | 0.0606
RRIRKRPPRLPRPRPRPATSPRP | 0.288
RRIRGRPPRLPRPRPRPSYAPRP | 0.316
RRIRRRPPRLPRPRPRPEADPRP | 0.774
RRIRPRPPRLPRPRPRPRVIPRP | 0.033
RRIRPRPPRLPRPRPRPHVTPRP | -0.0437
RRIRNRPPRLPRPRPRPNKPPRP | -0.122
RRIRHRPPRLPRPRPRPRMFPRP | -0.219
RRIRHRPPRLPRPRPRPLKGPRP | 0.0721
RRIRARPPRLPRPRPRPEWFPRP | 0.0641
RRIRTRPPRLPRPRPRPYLWPRP | -0.284
RRIRTRPPRLPRPRPRPSGIPRP | -0.0172
RRIRWRPPRLPRPRPRPMYRPRP | -0.233

Sequence | shrunken log2 fold change
RRIRQRPPRLPRPRPRPMNPPRP | -0.0843
RRIRSRPPRLPRPRPRPPNKPRP | -0.0165
RRIRVRPPRLPRPRPRPSASPRP | -0.2
RRIRPRPPRLPRPRPRPKQRPRP | 0.186
RRIRARPPRLPRPRPRPSIIPRP | -0.254
RRIRCRPPRLPRPRPRPQKPPRP | 0.0368
RRIRVRPPRLPRPRPRPEHAPRP | 0.0467
RRIRMRPPRLPRPRPRPQRVPRP | 1.27
RRIRFRPPRLPRPRPRPCSPPRP | -0.674
RRIRVRPPRLPRPRPRPPLKPRP | 0.343
RRIRRRPPRLPRPRPRPFCKPRP | -0.188
RRIRIRPPRLPRPRPRPQVWPRP | -0.0966
RRIRKRPPRLPRPRPRPCYKPRP | 0.0747
RRIRIRPPRLPRPRPRPGCMPRP | -0.134
RRIRRRPPRLPRPRPRPLIEPRP | 0.35
RRIRSRPPRLPRPRPRPTGEPRP | 0.0361
RRIRSRPPRLPRPRPRPPFKPRP | 0.0589
RRIRMRPPRLPRPRPRPDGLPRP | 0.143
RRIRHRPPRLPRPRPRPEGTPRP | -0.0282
RRIRQRPPRLPRPRPRPYKNPRP | -1.02
RRIRGRPPRLPRPRPRPRWCPRP | 0.351
RRIRTRPPRLPRPRPRPKTQPRP | 0.19
RRIRKRPPRLPRPRPRPTCEPRP | 0.793
RRIRGRPPRLPRPRPRPETKPRP | 0.374
RRIRSRPPRLPRPRPRPWRDPRP | 0.0985

Sequence | shrunken log2 fold change
RRIRDRPPRLPRPRPRPFKPPRP | 0.00312
RRIRWRPPRLPRPRPRPMFGPRP | -0.0457
RRIRHRPPRLPRPRPRPGYCPRP | -0.507
RRIRPRPPRLPRPRPRPSREPRP | 0.113
RRIRVRPPRLPRPRPRPQHLPRP | -0.117
RRIRKRPPRLPRPRPRPGHEPRP | 0.127
RRIRERPPRLPRPRPRPDGPPRP | 0.115
RRIRNRPPRLPRPRPRPLTDPRP | -0.193
RRIRIRPPRLPRPRPRPFRIPRP | -0.103
RRIRQRPPRLPRPRPRPLPRPRP | 0.724
RRIRMRPPRLPRPRPRPTIMPRP | 0.176
RRIRYRPPRLPRPRPRPTTFPRP | -0.645
RRIRLRPPRLPRPRPRPCVHPRP | -0.377
RRIRIRPPRLPRPRPRPYSFPRP | -0.307
RRIRCRPPRLPRPRPRPAEHPRP | 0.0782
RRIRIRPPRLPRPRPRPDMLPRP | -0.618
RRIRPRPPRLPRPRPRPSHGPRP | 0.108
RRIRERPPRLPRPRPRPGFTPRP | 0.00165
RRIRDRPPRLPRPRPRPSANPRP | 0.119
RRIRPRPPRLPRPRPRPKAWPRP | -0.0274
RRIRMRPPRLPRPRPRPKDWPRP | 1.43
RRIRYRPPRLPRPRPRPSSNPRP | -0.634
RRIRIRPPRLPRPRPRPNIVPRP | -0.665
RRIRGRPPRLPRPRPRPNEMPRP | 0.703
RRIRLRPPRLPRPRPRPEAVPRP | -0.0408

Sequence | shrunken log2 fold change
RRIRRRPPRLPRPRPRPWCGPRP | 0.282
RRIRQRPPRLPRPRPRPNCFPRP | 0.0427
RRIRDRPPRLPRPRPRPCEQPRP | 0.0856
RRIRMRPPRLPRPRPRPKLHPRP | 0.325
RRIRYRPPRLPRPRPRPFPFPRP | -0.271
RRIRTRPPRLPRPRPRPNMGPRP | -0.0939
RRIRLRPPRLPRPRPRPDNTPRP | -0.386
RRIRHRPPRLPRPRPRPAARPRP | 0.168
RRIRVRPPRLPRPRPRPKALPRP | 0.0497
RRIRQRPPRLPRPRPRPEDNPRP | -0.0442
RRIRHRPPRLPRPRPRPVTAPRP | 0.0123
RRIRCRPPRLPRPRPRPDALPRP | 0.0862
RRIRTRPPRLPRPRPRPELSPRP | -0.0448
RRIRHRPPRLPRPRPRPPRGPRP | 0.564
RRIRCRPPRLPRPRPRPIEMPRP | -0.0735
RRIRRRPPRLPRPRPRPDQPPRP | 0.0262
RRIRHRPPRLPRPRPRPVDSPRP | -0.175
RRIRYRPPRLPRPRPRPRPTPRP | 0.363
RRIRWRPPRLPRPRPRPDWIPRP | -0.0204
RRIRIRPPRLPRPRPRPNQEPRP | -0.177
RRIRFRPPRLPRPRPRPWFYPRP | -0.587
RRIRTRPPRLPRPRPRPLHRPRP | -0.287
RRIRVRPPRLPRPRPRPGKNPRP | -0.22
RRIRWRPPRLPRPRPRPLREPRP | 0.125
RRIRRRPPRLPRPRPRPQCKPRP | -0.268

Sequence | shrunken log2 fold change
RRIRYRPPRLPRPRPRPRTAPRP | -0.0512
RRIRERPPRLPRPRPRPALCPRP | 0.0446
RRIRRRPPRLPRPRPRPTRWPRP | 0.799
RRIRYRPPRLPRPRPRPEIDPRP | -0.0347
RRIRDRPPRLPRPRPRPKHTPRP | 0.136
RRIRRRPPRLPRPRPRPLGIPRP | 0.984
RRIRWRPPRLPRPRPRPFLMPRP | -0.115
RRIRMRPPRLPRPRPRPTSVPRP | 0.172
RRIRGRPPRLPRPRPRPYMLPRP | -0.0745
RRIRTRPPRLPRPRPRPCQMPRP | -0.267
RRIRLRPPRLPRPRPRPDEPPRP | -0.0538
RRIRDRPPRLPRPRPRPQYQPRP | -0.156
RRIRVRPPRLPRPRPRPICGPRP | 0.0607
RRIRWRPPRLPRPRPRPLKAPRP | 0.749
RRIRYRPPRLPRPRPRPMVNPRP | -0.0376
RRIRFRPPRLPRPRPRPNTIPRP | -0.409
RRIRRRPPRLPRPRPRPLNYPRP | -0.365
RRIRYRPPRLPRPRPRPMFLPRP | -0.377
RRIRPRPPRLPRPRPRPQTMPRP | 0.235
RRIRRRPPRLPRPRPRPKKIPRP | 0.106
RRIRIRPPRLPRPRPRPQPCPRP | -0.0143
RRIRYRPPRLPRPRPRPDWNPRP | -0.428
RRIRFRPPRLPRPRPRPPLKPRP | 0.266
RRIRWRPPRLPRPRPRPQNWPRP | 0.215
RRIRHRPPRLPRPRPRPRILPRP | 0.091
